From patent US20240139251A1 (CYTOARM, published 2024)

How the values were obtained:
[1] = target: T1, prostate specific membrane antigen (PSMA) on LNCaP cells (human, UniProt Q04609 1-750); assay: cell-based or functional assay
[2] = target: T1, prostate specific membrane antigen …; assay: cell-based or functional assay; remark: listed apart in the source

Row | Binder | Cell killing of LNCaP cells by T cells of Example 2 further modified with BsAb, E/T ratio 10:1 [1] | Cell killing of LNCaP cells by murine OKT3 T cells modified with BsAb, E/T ratio 10:1 [1] | Cytotoxic effect of BsAb T cells on LNCaP cells, Effect cell/Target cell 3:1 [2] | Cytotoxic effect of BsAb T cells on LNCaP cells, Effect cell/Target cell 5:1 [2] | Cytotoxic effect of BsAb T cells on LNCaP cells, Effect cell/Target cell 10:1 [2] | Cytotoxicity on LNCaP cells of T cells differentiated by BsAb, E/T ratio 5:1 [1] | Cytotoxicity on LNCaP cells of T cells differentiated by BsAb, E/T ratio 10:1 [1] | Cytotoxicity on LNCaP cells of T cells differentiated by and further modified with BsAb, E/T ratio 5:1 [1] | Cytotoxicity on LNCaP cells of T cells differentiated by and further modified with BsAb, E/T ratio 10:1 [1]
1 | anti-PSMA Fab/anti-CD3 scFv BsAb (bispecific antibody, not shown: small tags and cut ends) light: DIVMTQSPSSLSASVGDRVTITCKASQDVGTAVDWYQQKPGKAPKLLIYWASTRHTGVPDRFTGSGSGTDFTLTISSLQPEDFADYFCQQYNSYPLTFGGGTKLEIKRTVAAPSVFIFPPSDEQLKSGTASVVCLLNNFYPREAKVQWKVDNALQSGNSQESVTEQDSKDSTYSLSSTLTLSKADYEKHKLYACEVTHQGLSSPVTKSFNRGEC heavy (part 1 of 2): EVQLVQSGAEVKKPGASVKISCKTSGYTFTEYTIHWVKQASGKGLEWIGNINPNNGGTTYNQKFEDRATLTVDKSTSTAYMELSSLRSEDTAVYYCAAGWNFDYWGQGTTVTVSSASTKGPSVFPLAPSSKSTSGGTAALGCLVKDYFPEPVTVSWNSGALTSGVHTFPAVLQSSGLYSLSSVVTVPSSSLGTQTYICNVNHKPSNTKVDKRVEPKSCDK heavy (part 2 of 2): not shown | > 90% | ~100% | 64.8% | 87% | 97.3% | – | – | – | –
2 | anti-CD3 Fab/anti-PSMA scFv BsAb (bispecific antibody, not shown: small tags and cut ends) light: not shown heavy (part 1 of 2): not shown heavy (part 2 of 2): GGGSGGGEVQLVQSGAEVKKPGASVKISCKTSGYTFTEYTIHWVKQASGKGLEWIGNINPNNGGTTYNQKFEDRATLTVDKSTSTAYMELSSLRSEDTAVYYCAAGWNFDYWGQGTTVTVSSAGGGGSGGGGSGGGGSDIVMTQSPSSLSASVGDRVTITCKASQDVGTAVDWYQQKPGKAPKLLIYWASTRHTGVPDRFTGSGSGTDFTLTISSLQPEDFADYFCQQYNSYPLTFGGGTKLEIKRHHHHHH | > 90% | – | 30.3% | 62.6% | 82.2% | ~51.3% | ~61% | ~78.2% | ~81.8%
3 | anti-CD3 knob/anti-PSMA hole BsAb (bispecific antibody) light 1: not shown heavy 1: not shown light 2: RIVMTQSPSSLSASVGDRVTITCKASQDVGTAVDWYQDKPGKAPKLLIYWASTRHTGVPDRFTGSGSGTDFTLTISSLQPEDFADYFCQQYNSYPLTFGGGTKLEIKRTVAAPSVFIFPPSDEQLKSGTASVVCYLNNFYPREAKVQWKVDNALQSGNSQESVTEQDSKDSTYSLWSTLTLSKADYEKHKLYACEVTHQGLSSPVTKSFNRGECGGGSYPYDVPDYA heavy 2: not shown | > 90% | – | 43.1% | 58.6% | 70.4% | – | – | – | –
4 | anti-PSMA scFv/anti-CD3 scFv BsAb (bispecific antibody, not shown: small tags and cut ends) chain (part 1 of 2): DIVMTQSPSSLSASVGDRVTITCKASQDVGTAVDWYQQKPGKAPKLLIYWASTRHTGVPDRFTGSGSGTDFTLTISSLQPEDFADYFCQQYNSYPLTFGGGTKLEIKRGGGGSGGGGSGGGGSEVQLVQSGAEVKKPGASVKISCKTSGYTFTEYTIHWVKQASGKGLEWIGNINPNNGGTTYNQKFEDRATLTVDKSTSTAYMELSSLRSEDTAVYYCAAGWNFDYWGQGTTVTVSSA chain (part 2 of 2): not shown | > 90% | – | 53.8% | 83.4% | 97.6% | – | – | – | –
